These results are taken from patent CN117756939A.

This assay addresses 人源LILRB1 (human LILRB1, on HEK293T-hLILRB1, Jurkat-hLILRB1 or Daudi cells) (human). The experiment in a line: flow cytometry, blocking of PE-HLA-G tetramer (2 μg/mL) binding to HEK293T-hLILRB1 cells. On the technique in general: Flow cytometry measures light scatter and fluorescence of single cells or particles in a stream.

One may read the IC50 as the concentration needed to halve the response being measured. Consider “BION-202 (Biond Biologics公司研发的靶向LILRB1人源化IgG4单克隆抗体) (antibody)”, for which the half-inhibitory concentration (IC50) is 0.021 µg/mL.
